The sequences below were run on Saccharomyces cerevisiae (assay: transcriptional activation domain activity (GFP:mCherry ratio, weighted mean of sorted bins, harmonized to initial dataset scale) (arbitrary fluorescence ratio units); higher = stronger transcriptional activation). Conditions: beta-estradiol 1 µM; induction time 4 h.
Outline: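 Barcoded protein tiles fused to an estradiol-inducible synthetic transcription factor were integrated at the yeast URA3 locus, in diploids carrying a GFP reporter. Cultures were diluted 1:5 into SC with 1 uM beta-estradiol, held 4 hours at 30 °C, sorted into 8 bins by GFP:mCherry ratio, and barcodes sequenced. Tiles under 50 reads were discarded. Activation activity is the read-weighted mean of bin median fluorescence, averaged across barcodes, then linearly mapped onto the initial dataset scale.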

Sequence | transcriptional activation domain activity
LALIRGGSHVGQVTFDRHSIASEGVVWCLAVKFKGVTLNLSWSEAVYRWFHVL | 57300
MVQNWEFFVFFFRFVKFTCVQCGLWCGSPGKLLGLFLFLVCCVLFFFFFFLVE | < 6570
MTVSWLRRLGTFLFEFFFFFSFFSFFFFLFSFFFFLFFLFSYFPFFSFFSFFS | 21600
TGWCCLLMSIFSFNHAVLFVAFIFPNGVSCRKLLWNAMIGYVISLECSNLLLL | 60800
HLLVVAPLILAYLTVDDLSNLRLRLLGRCLRLLAISLAFLCACCCTSSSTPST | 58200
SKWTTVDADDDLMRTFIRAYFLYEYDWFTFFHKDYFLDDMLAGSSTFCSPLLV | 42000
RPWRWSFGVYVLCRTLALGGIISAFVGFSPFNEFHCDVWLRFLLVFSWFAIAS | 66600
HHLVITHVILFCLITFRCFTVIVRSIYERWHIKSAVIVLDLGSSWGLAANVPW | 43600
MGVICIFICFAVGLSTIITNLLSWLLLFSIICLICAPIILFVEVPFLLRICPT | 61400
FGCLGFYPYLYCTGGMVLSHFAPHQNPELYPSDLSIISSLLISILFFCGWTLT | 67900
MDAPQNNSRGNNARRNRNRGGNRQSTGGVTKQQSQQQSKPAAKPVNVQTTVVI | 47800
LPSLAQIDVLIRRERMVTIERHPLCLSLVVASQYTLGPLLLLRIVHCIYKTYG | 58200
WHTDLGIPSFGWTLLHELEGLLGRIEANWMEEVTVRTIVLLTSRLLSAVRDHD | 55200
SRLLHLLLVTLGLLVVLLYSFFPSPDVFVLSPLRSPLFLLFSPSFFFCLFCLF | 75400
NRNQDAAEPSAAASSSAAAPAETPARGGNRQNDGANNQGGNNQNNGGNNRQQE | 41100
EQEEEEEEEEAKQPKKKRAKKWFEDESSGDEDTGDRKKKKRKARAAAAAAAAA | 41300
WEPPLYDSVGNHNHAGTMESHPHTNIHEELKEFLSGDLIEAEDNAKLMFGDDN | 55300
LGVVFWCWCGLLGLKIQLYAGSYIKFRSVVIVMLIVLEIFEISINVSVCVIFH | 53000
SLFFSVWALSQTWCVGHRRCSPMHLGTYYDAFIFLGISGMWKWSLLLIVIYRF | 34000
MYNLNLFYFSFFLSLSLFLFFFPLPFFFRSVWFANLFFVLLFLYYVPFLSHSC | 58700
SFVRDVGFFIVSASFSLVFLWDGKLYFWECVTMVGFYVFYVIFVMAWHWWLGR | 43100

Sequence | transcriptional activation domain activity
LCLLHRWKEFNQPEDVKCAVEYLRHLRGLPLDTFEVSHKVVTILLVQVLGIQV | 48900
MRYRVNYMSTQGIHYSPFLPWIINIFKPNIMLICLFSFLPYFILFIMKSMLVL | 74600
YHTRNRLLLLCAQAHELAVLGVRELARCLRYLPKVHYMPVHWSTIFTWAEFCA | 75600
GEEARDRGHRSGSGRHRSRDRERRRRRDRDDDRHTSSRHSRRERSPEEDSSRR | 36700
SSSSRGKGGKEKGKGKVAGEGDGDGEEEQGEQQQQQQTSLVEAVARARDACRL | 27200
RNLAAAAAGATAVGLAAKAIHDHRARSRSRSSSASGSDRGHRHNAVLGLGAAG | 42100
MLLAMGWKVATGLQTLSIFRRDGFLYFLVWINLINTMIVLFARPTLLFVTIFF | 51900
AFIHRLHEVYIVAWCMKNVHFMYLHPGVPFYVLCDCTRGDTIMTVHACAEPPP | 63000
MFISICICSPYFQGCLAHTFYLFFYWGYLDCSLPPLVLQQRLLLWLLFDSFFI | 46000
VFERVRLDWLILFDLRMWKKVRNDLRALYISTVVTIPEFKRILGLRFAALYTT | 51300
IIFVELYSYLLYYIYLNIRIFLRFSSSIVLDFELFCFPPSHFPFNFFVCILFT | 74000
MTWFLSFWLKCGFVLLGLFFDFFLFCNRFLYASISFFFFFHSLSLFWNRNHLF | 79900
QRGKPYDLHSSDGSSEKKRTEKVGLSAGKQHMWILLRPKAAMWAVCVVLASPE | 38700
HVLEYACSIAISRQQERRKRKAIRKSESLNALAKALLRLLSVFSTIRLASGQL | 91500
EGEGAADPAAGAGAGAEEDGEEEEDEGAADPAAGAGAGDEEGEGAAEEGAAES | 17600
MVLIFFLYWLWFMWGLYLFFFSFFSRAKYWLLVLVVFFFGWGFYIVWSFSLHD | 57500
RFLLAALLLFGPLIGSCPSMSMSLMITEFGLFCCACLLGFVHHLFFPIFVESR | 47600
NLISLPLLKLCSEFAHVKWYEVLSHIVCFGFNGPTKPRSNNLVSLNLQCEHYK | 48400
MPMDILVFYIPHRIKFCFFFFYLFIFFIFLPSYLIFYCTVTSAFLLFLYLYYL | 26000
SHPDIMDAAVIGVEGEGTEVPRAYVVADRKKVNEKKVQEWVKGRTARNKRLRG | 25900
LEQHPKDRVKFSTPELVPLDLKNPELDSSFDLNMNLDLNLNLDSNFNIALNRS | 97100

Sequence | transcriptional activation domain activity
GRNKRREKRPEEETTRQRRKGKREEQERRRTTKAGTKAEKRGEERRASGDANE | 23100
PPPPPPPPPPAGRGGGAPPPHAISGGAPPPPPTPPPPPPPPPPPGVVPVPPPP | 41600
LSSSPSAQMATNTNVVVVIGDDKRVKEVGDALKTKLGVKGGGKGMRWSGKFVG | 26700
IIFCLGRYGLICSLMYTNTVLIFLPPSRMSAQASLTCQTFASILVFCIVLSAI | 73300
VLRWGDTNTLPFVHIMMVFIHKMAQYAAAMSYLEQVFPWKLTMVMLNYHLTSC | 68500
LLFQSGVLRGYGGLLGFWIYLLLSSSFLLHLFYCCYIVLYLFVFVSWLLACLL | 51700
CFICYGYIVIRWWIEADRDPELIHQALVMIWYPIAYFVEIFPQSMVRVLNMHA | 52600
DDSRERRRSSRKDREKDRKERKRHRHRSDDKSEDDDDRRHRKDRKRSRPSSAA | 22100
RLRVWELGRNSWTVYKFNPDLFPFIDVYPWPRICRLLKCLVFVFRYLEIIRPL | 51800
MVLFLFCLITFACSRTWVMAFLLIWVSSFFLFILFFFSFFSYYAFRVLPLCYS | 46300
FCFYPFQKQWVMFSLTKDSLQLAHKFNFTRVPLPQRLRAVYLYARFAWRIFLL | 33000
MLFTIVPLLCILHHIVLHPIFPSLFYTHIHLCTFFFFFNSVFFFFMFYILVFN | 50200
MSSLFFLRSPCFYLYLYHYLVSFLIFMAFCLVCCLPLLFHFWVFCLLLCFRIY | 63600
LFVFLLFVLFLLVLFMLVLLLLFLPLLLLLPLLLWILWILILRLFFSFLDISD | 36900
TLHVCFVEMRLADVVVDFLSRCSATINLAFFDTRLWHPNLLPILGALPLQRLS | 87200
MLLSLGPVLFSFGHPPLIHLCLVPHPVFFSYPFSLLFISPISSLDYFCFSFPF | 45400
KFANNVSEMKKLGARDFEDILQNLIPVVDGLLDEPYNSWILTLLFRLAEWHAL | 42400
GLWLVLLCDAARFPDVVDLVKRKGSRFPASGDLASNESWYLSLWAIKAHILQR | 64800
NLQKIISYLLPAGSWSEDWPIILNVFFGCPLPLSSFLMVIICCFTDLFCCLTL | 47100
MYVEIFFLSLVWRIIIVLSLTSKGVFFNITYLFFRFLFSLVLCIFFFLHFFSL | 43100
LACFLGLTFTLFLLIYFFFLSIFSFIILSLLCVLHHSACLPCLNFHMLPFCPF | 61100

Sequence | transcriptional activation domain activity
SMLEQQESTSAARAEGQRGGAVQEGDIELVDAACVQLASRISPKSLLQRPMVD | 31900
VPGEVSEAEANGETKAEDAPAAEGDAAKPKKKKKKAAKKAKSANGEATEGAPA | < 6570
LSPHLPPHLPPRLYFAIDSDLFLLLLLPPFDICFYLSSLLVLIFFIYLLLEVH | 30600
MSGTNNSAAPPSYFDKAKDAMHSVVGNLTGHDDKETSSKPYVPTVSSACTAVV | 61800
ARTSDYSIAQWRFLTKLLLVHGRWNYNRICKYIVGTFWKEIVFYLTQALYQRY | 45400
RKGEGEGSEPPHPAEPRRLRRSHEACARCRSKKIKCDSKHPRCTACATAGTPC | 23800
HSPYLNSEADFSQILSSAPPVHHDPNETHQENQDIIDRFANSSQEHNEYILQY | 66200
HWSYYRNGNMIINFFYKEIINIGYLFWFQIYCAWSTAQAIDYVYLLFWNAFWT | 77100
TLGFVGFVTTLKKVTLRRQFGLFCWIHISLFLIVVSSHFIVNSILEGLIWFWL | 74700
MLCGAMPIVSLFSFYTFFFVFWCYLLKFFSVMAWLSTHIALLPSFFVLLTFSL | 40600
PYSLDIKNTVLDSADLNDIQNQETSLNLGLPPLSFDSPLPVTETIPSTTDNSL | 73400
SDYGLHLRHVLLLSPTIFPIIFAALMGRCFRSIGLYRAERGISLIRLEQLIGC | 55900
YAILYFLFFGAWGLRIMSHLPSWWYNCPQFWIDYPHWQMTPELKCYYLMQASY | 73600
NAFGAYSTDPSNIAEGLNTVGFRSGFAFFFVSMGIMCLIYLVCSLRTNVCFFM | 26100
MLVVELLPAIESFFGHIFCTDFMFCFLFFYIIYIFFFSRFSVIANYTVMSLYF | 85300
IIVKTEIMIRNRHPRFLRITLDSVSNLVRLWYIVRLKKLTYYYLLWEFSLLPL | 49700
GGEGEKKKREGKEGREKRGGRRKKGRGKKGRGREGRKKGKRKREGKGKKGEKR | 24600
WLHKLPRATWAYPLYGIYYLLTNPALLSPLLSRIIPLLILSIFVLTFTFTFLY | 43800
FFSSLFIYSFFVFSFSLSLSLCLLPSFFLSCFLSFFAIYYYLVGFLLLLLLLF | 49100
AWVLSLFLSFFGIGLVLGSGIWDLGFGLVFLFLVFSFFWGWFWVVLCVVYVDR | 33800

Source: the supplement of paper PMC12636428
